What was measured:
[1] = test system: Saccharomyces cerevisiae; experiment: protein stability index of tFT-peptide fusion in deletion strain of DOA10 (PSI (0-1 scale)); higher = more stable (slower turnover)
Experimental: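 MPS profiling in S. cerevisiae of two library types built from selected 12-aa C-degron peptides (IN1, IN2, LN1, LN3, VN2, R1-R5, W1-W3, Atg1 and Rpa12 C-termini): saturation mutagenesis libraries and C-terminal +1 capping libraries (13 aa). Each peptide is fused to the C-terminus of a sfGFP-mCherry timer, after a GGGS linker. Cells are FACS-sorted into 8 mCherry/sfGFP bins and sequenced. PSI runs from 0 (unstable) to 1 (stable), measured once in wild type and in the das1Δ or doa10Δ background.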

[2] = test system: Saccharomyces cerevisiae; experiment: protein stability index of tFT-peptide fusion in wild type (PSI (0-1 scale)); higher = more stable (slower turnover); conditions: genetic background: wild type
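For protein stability index of tFT-peptide fusion in deletion strain of DOA10 in this document: PSI per variant is the weighted mean of its sequencing read distribution over the sorted stability bins, counting only variants with over 10 reads summed across bins.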
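For protein stability index of tFT-peptide fusion in wild type in this document: PSI derived as read-weighted mean over the 8 sorting bins, only variants exceeding 10 total reads kept, mCherry placed adjacent to the peptide and sfGFP distal.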

| Sequence | protein stability index [1] | protein stability index [2] |
| --- | --- | --- |
| RSLRVLLPLYGR | 0.642 | 0.595 |
| RSLRVLLPLYVR | 0.35 | 0.202 |
| RSLRVLLWLYFR | 0.524 | 0.166 |
| RSLRVLLYLYFR | 0.479 | 0.235 |
| RSLRVLSPLYFR | 0.691 | 0.308 |
| RSLRVRLPLYFR | 0.675 | 0.187 |
| RSNRVLLPLYFR | 0.701 | 0.334 |
| RSQRVLLPLYFR | 0.705 | 0.308 |
| RSVRVLLPLYFR | 0.661 | 0.238 |
| RVKRLDAIYFRI | 0.64 | 0.392 |
| RVTELDAIYFRI | 0.64 | 0.633 |
| RVTRHDAIYFRI | 0.689 | 0.517 |
| RVTRLDAIAFRI | 0.708 | 0.673 |
| RVTRLDAICFRI | 0.713 | 0.656 |
| RVTRLDAIYERI | 0.708 | 0.67 |
| RVTRLDAIYFHI | 0.527 | 0.491 |
| RVTRLDAIYFNI | 0.703 | 0.572 |

| Sequence | protein stability index [1] | protein stability index [2] |
| --- | --- | --- |
| RVTRLDAIYFRE | 0.725 | 0.676 |
| RVTRLDAIYFRIR | 0.717 | 0.589 |
| RVTRLDAIYFRN | 0.676 | 0.6 |
| RVTRLDAIYFRV | 0.63 | 0.342 |
| RVTRLDAIYFTI | 0.64 | 0.548 |
| RVTRLDAIYFWI | 0.561 | 0.523 |
| RVTRLDAIYKRI | 0.698 | 0.667 |
| RVTRLDAIYLRI | 0.704 | 0.302 |
| RVTRLDANYFRI | 0.716 | 0.689 |
| RVTRLDAYYFRI | 0.714 | 0.609 |
| RVTRLDLIYFRI | 0.654 | 0.224 |
| RVTRLDPIYFRI | 0.707 | 0.462 |
| RVTRLNAIYFRI | 0.496 | 0.229 |
| RVTRPDAIYFRI | 0.706 | 0.34 |
| RVVRLDAIYFRI | 0.65 | 0.399 |
| YSLRVLLPLYFR | 0.632 | 0.244 |

— the supplement of paper PMC10724198
